Results reported in paper PMC9671922, “TOPOVIBL-REC114 interaction regulates meiotic DNA double-strand breaks” (Nature Communications, 2022).

T1: REC114^15–159 (REC114 PH domain) (mouse, UniProt Q9CWH4 15-159)
T1 construct: Expressed from pProEXHTb; His-tag cleaved with TEV protease; source: E. coli BL21-Gold (DE3), purified (Ni2+ resin, TEV cleavage, second Ni2+ column, Superdex 200)
T1 sequence (looked up): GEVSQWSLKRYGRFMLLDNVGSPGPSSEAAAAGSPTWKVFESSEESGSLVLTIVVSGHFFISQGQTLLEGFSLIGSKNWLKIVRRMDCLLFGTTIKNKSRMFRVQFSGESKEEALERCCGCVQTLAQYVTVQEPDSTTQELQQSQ


Biological target: T1, REC114^15–159 (REC114 PH domain)
Assay: ITC; 25 °C, ITC200; 0.3-1.8 mM TOPOVIBL injected into 30-40 µM REC114 in the cell; 20 mM Tris pH 8.0, 100 mM NaCl, 5% glycerol, 5 mM β-mercaptoethanol; one-site model
Conditions: both partners purified

Kd	Binder
3.3 µM	EDLWLQEVSNLSEWLNPG (also called TOPOVIBL peptide; TOPOVIBL C-terminal peptide) [TOPOVIBL^559–576 peptide]
1.2 µM	6xHis-TOPOVIBL C-terminal domain (CTD; 452–579) (domain or fragment, mouse, UniProt J3QMY9 452-579, looked up, Cloned in pProEXHTb; also called TOPOVIBL CTD; source: E. coli BL21Gold (DE3), purified (Ni-Chelating Sepharose, Superdex 200)) SCDTEQHLTPEKNISAQNTKDQHKNIAQEFPEESIGQAENKRPKRGSPNHGREESRVLGSARDRSPPKSATRDRELTEVSLTARGSQTQAAHGRAQAAEAASPAGGLEDLWLQEVSNLSEWLNPGHRS
